Measurements as given in patent US20210403542A1 (BIOARCTIC, published 2021).

Assays:
[1] = target: T1, human α-synuclein protofibril (human, UniProt P37840 1-140); experiment: inhibition ELISA
[2] = target: T1, human α-synuclein protofibril; experiment: SPR, Biacore 8K; ratio of KD values
Description: (§1) Due to feasibility issues caused by the complexity of the target antigen in combination with pronounced avidity dependence of the antibodies, different assay set-ups were used to assess α-synuclein protofibril and monomer binding, respectively.

β-synuclein monomer = β-synuclein monomer (UniProt Q16143 1-134); experiment: inhibition ELISA; concentration of β-synuclein monomer varied against BAN0805 (hu47-IgG4)
[3] = target: T1, human α-synuclein protofibril; experiment: SPR, Biacore 8K; PF coated on chip, antibody injected, single cycle kinetics
Description: as §1

[4] = target: T1, human α-synuclein protofibril; experiment: inhibition ELISA; protofibril concentration as monomer equivalents
γ-synuclein monomer = γ-synuclein monomer (UniProt O76070 1-127); experiment: inhibition ELISA; concentration of γ-synuclein monomer varied against BAN0805 (hu47-IgG4)
Sequence of γ-synuclein monomer (O76070 whole entry): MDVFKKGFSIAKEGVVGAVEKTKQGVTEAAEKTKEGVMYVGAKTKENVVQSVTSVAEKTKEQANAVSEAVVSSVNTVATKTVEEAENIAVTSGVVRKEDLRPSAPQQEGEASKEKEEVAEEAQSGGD

Aβ-protofibril = target: T2, Aβ-protofibril (UniProt P05067 672-713); experiment: inhibition ELISA; concentration of Aβ-protofibril varied against BAN0805 (hu47-IgG4)
T2 construct: also called Aβ-protofibrils

α-synuclein monomer = α-synuclein monomer (human, UniProt P37840 1-140); experiment: SPR, Biacore 8K; antibody captured by anti-human antibody, monomer injected, single cycle kinetics
Description: as §1

Sequence of β-synuclein monomer (Q16143 whole entry): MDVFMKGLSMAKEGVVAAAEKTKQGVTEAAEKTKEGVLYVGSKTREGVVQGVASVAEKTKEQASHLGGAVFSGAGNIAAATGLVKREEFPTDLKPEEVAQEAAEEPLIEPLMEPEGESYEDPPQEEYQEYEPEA

selectivity for α-synuclein protofibril versus monomer (IC50 monomer / IC50 PF) [1]: 910 fold
selectivity PF vs. monomeric α-synuclein (fold) [2]: 110000 fold
Kd [3]: 0.0185 nM
IC50 [4]: 2.2 nM
binding result (Aβ-protofibril): no binding
Kd (α-synuclein monomer): 2190 nM
B1: BAN0805 (antibody, human IgG4 S228P, kappa, V domains shown)
VH: QVQLQESGPGLVKPSETLSLTCTVSGFSLTSYGVHWIRQPPGKGLEWIGVIWRGGSTDYSAAFMSRLTISKDTSKNQVSLKLSSVTAADTAVYYCAKLLRSVGGFADWGQGTMVTVSS
VL: DIVMTQSPLSLPVTPGEPASISCRSSQTIVHNNGNTYLEWYLQKPGQSPQLLIYKVSNRFSGVPDRFSGSGSGTDFTLKISRVEAEDVGVYYCFQGSHVPFTFGQGTKLEIKR
notes: Humanized variant of mAb47, human IgG4 (pXC-IgG4Pro(deltaK)) / kappa; also called hu47-IgG4
binding result (β-synuclein monomer): no binding (tested: last point just above the 10000 nM tick)
binding result (γ-synuclein monomer): no binding (tested: last point just above the 10000 nM tick)
